This note sets out measurements from PMC9701186 (Nature Communications, 2022).

The target of experiment [1] is Aigai virus strain Pentalofos GP38 (Aigai virus, strain Pentalofos, UniProt A0A2P1JMM7, strain). In words: BLI; […]; antibody (1 µg/mL) […] (AHC) sensors; […]; 300 s association, 600 s dissociation; global 1:1 fit. As to conditions: both partners purified.
The target is the same in experiment [2]. In words: BLI; […]; mAb (1 µg/mL) […] (AHC) sensors; […]; 1× Octet kinetics buffer; global 1:1 fit. As to conditions: both partners purified. (In BLI a coated tip is dipped into the sample, and binding shifts an interference pattern.)

B1: human chimeric 13G8 mAb (c13G8) (antibody, V domains shown)
VH: DVQLQQSGPGLVAPSQSLSITCTVSGFSLTNYGIHWVRQPPGKGLEWLGVIWAGGYTKYNSALMSRLSMSKDNSKSQVFLKMNSLQTDDTAMYYCARDEVRRDYYAMDHWGQGTTVTVSS
VL: DIQMTQSPAILSASPGEKVTMTCWASSGVSYMHWYQQKPGSSPKPWIFATSNLASGVPARFSGSGSGTSYSLTISRVEAEDAATYYCQQWSFNPLTFGAGTKLEIK
notes: copies: 2 + 2
Turning to B1, the binding result in experiment [1] is “no binding (tested: 100nM)”.

B2: human chimeric 13G8 mAb (c13G8) (antibody, V domains shown)
VH: B1 VH
VL: B1 VL
notes: source: Expi293 cells, purified (mAb Select Sure column)
On to B2, for which, in experiment [2], the binding result is on record as “no binding (tested: up to 20.0 nM GP38)”.

B3: CC5-17 mAb (antibody, V domains shown)
VH: EVQLVQSGAEVKKPGESLRISCKGSGYSFTSYWIGWVRQMPGKGLEWMGIIYPGDSDTRYSPSFQGQVTISADKSISTAYLQWTSLKASDTAMYYCARQLGGSSFGNYYDSGSYYTAAYWGQGTLVTVSS
VL: DIQMTQSPSSLSASVGDRVTITCRASQSINNYLNWYQQKPGKAPKLLIYAASTLQSGVPSRFSGSGSGTDFTLTISSLQPEDFASYYCQQSYRGTFGQGTKVEFK
notes: copies: 2 + 2
With B3, the binding result in experiment [1] is “no binding (tested: 100nM)”.

B4: CC5-17 mAb (antibody, V domains shown)
VH: B3 VH
VL: B3 VL
B4: in experiment [2], the binding result is on record as “no binding (tested: up to 20.0 nM GP38)”.
